Data from US20180155451A1 (published 2018).

B1: GpH7-B3 variant P271_01G/GpL16-k0 (Ho Ab) (antibody, human IgG1, kappa)
heavy: not shown
light: DIVMTQSPLSLPVTPGEPASISCQASESLVHSNRNTYLHWYLQKPGQSPQLLIYKVSNRFSGVPDRFSGSGSGTDFTLKISRVEAEDVGVYYCSQNTHVPPTFGQGTKVEIERTVAAPSVFIFPPSDEQLKSGTASVVCLLNNFYPREAKVQWKVDNALQSGNSQESVTEQDSKDSTYSLSSTLTLSKADYEKHKVYACEVTHQGLSSPVTKSFNRGEC
notes: Substitution in both H chains; position in EU numbering; also called P271G homodimerized antibody
B2: GpH7-B3 variant T335_09D/GpL16-k0 (Ho Ab) (antibody, human IgG1, kappa)
heavy: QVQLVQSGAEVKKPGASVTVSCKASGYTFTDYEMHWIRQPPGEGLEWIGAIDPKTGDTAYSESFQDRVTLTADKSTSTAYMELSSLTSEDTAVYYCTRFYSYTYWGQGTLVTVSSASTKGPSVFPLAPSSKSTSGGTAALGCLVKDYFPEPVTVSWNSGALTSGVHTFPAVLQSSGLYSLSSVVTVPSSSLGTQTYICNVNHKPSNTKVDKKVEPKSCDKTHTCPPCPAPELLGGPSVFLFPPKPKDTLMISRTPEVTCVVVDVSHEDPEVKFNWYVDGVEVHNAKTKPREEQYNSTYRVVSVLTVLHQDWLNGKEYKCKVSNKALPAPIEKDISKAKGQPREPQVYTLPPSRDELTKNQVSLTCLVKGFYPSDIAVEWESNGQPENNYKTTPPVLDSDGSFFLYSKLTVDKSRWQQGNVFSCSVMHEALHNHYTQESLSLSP
light: B1 light
notes: Substitution in both H chains; position in EU numbering; also called T335D homodimerized antibody
B3: GpH7-B3 variant S337_14T/GpL16-k0 (Ho Ab) (antibody, human IgG1, kappa)
heavy: not shown
light: B1 light
notes: Substitution in both H chains; position in EU numbering; also called S337T homodimerized antibody
B4: GpH7-B3 variant S267_08L/GpL16-k0 (Ho Ab) (antibody, human IgG1, kappa)
heavy: not shown
light: B1 light
notes: Substitution in both H chains; position in EU numbering; also called S267L homodimerized antibody
B5: GpH7-B3 variant S239_09D/GpL16-k0 (Ho Ab) (antibody, human IgG1, kappa)
heavy: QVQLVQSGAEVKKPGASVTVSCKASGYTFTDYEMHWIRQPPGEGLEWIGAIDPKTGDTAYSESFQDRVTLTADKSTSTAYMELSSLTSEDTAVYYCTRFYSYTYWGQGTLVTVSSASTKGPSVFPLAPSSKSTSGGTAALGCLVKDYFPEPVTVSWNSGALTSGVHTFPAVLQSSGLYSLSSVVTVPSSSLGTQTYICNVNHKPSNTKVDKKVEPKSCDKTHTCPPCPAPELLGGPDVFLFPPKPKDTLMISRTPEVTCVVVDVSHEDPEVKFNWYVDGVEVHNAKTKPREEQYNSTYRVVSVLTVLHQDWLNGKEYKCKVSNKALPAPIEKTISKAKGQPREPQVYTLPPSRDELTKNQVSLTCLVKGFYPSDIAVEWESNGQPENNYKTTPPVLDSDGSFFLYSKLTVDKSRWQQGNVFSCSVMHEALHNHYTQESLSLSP
light: B1 light
notes: Substitution in both H chains; position in EU numbering; also called S239D homodimerized antibody
B6: GpH7-B3 variant S337_09D/GpL16-k0 (Ho Ab) (antibody, human IgG1, kappa)
heavy: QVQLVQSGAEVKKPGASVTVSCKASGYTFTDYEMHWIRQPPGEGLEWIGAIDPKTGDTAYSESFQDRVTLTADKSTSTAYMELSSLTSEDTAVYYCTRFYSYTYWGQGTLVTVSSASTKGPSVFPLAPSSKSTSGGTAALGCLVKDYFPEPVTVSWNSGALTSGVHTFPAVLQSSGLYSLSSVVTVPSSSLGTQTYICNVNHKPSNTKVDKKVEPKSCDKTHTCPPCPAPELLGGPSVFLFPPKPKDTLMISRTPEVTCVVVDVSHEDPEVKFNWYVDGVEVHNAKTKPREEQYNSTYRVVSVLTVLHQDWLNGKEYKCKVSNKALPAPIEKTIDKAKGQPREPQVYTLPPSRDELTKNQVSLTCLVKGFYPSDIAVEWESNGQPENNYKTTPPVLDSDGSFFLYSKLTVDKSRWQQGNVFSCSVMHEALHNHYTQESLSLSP
light: B1 light
notes: Substitution in both H chains; position in EU numbering; also called S337D homodimerized antibody
B7: GpH7-B3 variant T335_04F/GpL16-k0 (Ho Ab) (antibody, human IgG1, kappa)
heavy: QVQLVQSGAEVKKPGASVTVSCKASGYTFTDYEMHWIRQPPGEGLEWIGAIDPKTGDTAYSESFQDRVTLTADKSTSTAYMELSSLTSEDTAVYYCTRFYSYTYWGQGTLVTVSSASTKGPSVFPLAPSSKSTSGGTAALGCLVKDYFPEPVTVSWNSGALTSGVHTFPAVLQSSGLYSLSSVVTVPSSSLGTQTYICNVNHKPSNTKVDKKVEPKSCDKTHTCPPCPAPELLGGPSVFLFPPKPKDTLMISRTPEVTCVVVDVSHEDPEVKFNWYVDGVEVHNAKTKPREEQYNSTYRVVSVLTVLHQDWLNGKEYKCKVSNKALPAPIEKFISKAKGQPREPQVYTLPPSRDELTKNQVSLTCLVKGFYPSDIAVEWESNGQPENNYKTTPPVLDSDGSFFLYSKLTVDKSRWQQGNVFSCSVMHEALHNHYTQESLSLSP
light: B1 light
notes: Substitution in both H chains; position in EU numbering; also called T335F homodimerized antibody
B8: GpH7-B3 variant S239_07I/GpL16-k0 (Ho Ab) (antibody, human IgG1, kappa)
heavy: not shown
light: B1 light
notes: Substitution in both H chains; position in EU numbering; also called S239I homodimerized antibody
B9: GpH7-B3 variant S267_07I/GpL16-k0 (Ho Ab) (antibody, human IgG1, kappa)
heavy: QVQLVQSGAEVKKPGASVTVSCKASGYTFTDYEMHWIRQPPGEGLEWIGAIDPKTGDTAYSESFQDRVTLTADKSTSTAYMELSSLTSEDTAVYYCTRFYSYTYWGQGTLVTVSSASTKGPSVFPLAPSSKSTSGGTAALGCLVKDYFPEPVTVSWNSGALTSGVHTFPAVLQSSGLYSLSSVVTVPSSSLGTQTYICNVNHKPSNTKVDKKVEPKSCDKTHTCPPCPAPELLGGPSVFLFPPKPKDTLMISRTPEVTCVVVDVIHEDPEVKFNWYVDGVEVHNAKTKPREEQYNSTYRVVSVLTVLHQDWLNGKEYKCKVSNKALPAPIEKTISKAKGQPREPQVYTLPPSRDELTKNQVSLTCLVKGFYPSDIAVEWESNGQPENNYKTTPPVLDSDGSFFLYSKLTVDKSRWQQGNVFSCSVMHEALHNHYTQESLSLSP
light: B1 light
notes: Substitution in both H chains; position in EU numbering; also called S267I homodimerized antibody
B10: GpH7-B3 variant S267_10E/GpL16-k0 (Ho Ab) (antibody, human IgG1, kappa)
heavy: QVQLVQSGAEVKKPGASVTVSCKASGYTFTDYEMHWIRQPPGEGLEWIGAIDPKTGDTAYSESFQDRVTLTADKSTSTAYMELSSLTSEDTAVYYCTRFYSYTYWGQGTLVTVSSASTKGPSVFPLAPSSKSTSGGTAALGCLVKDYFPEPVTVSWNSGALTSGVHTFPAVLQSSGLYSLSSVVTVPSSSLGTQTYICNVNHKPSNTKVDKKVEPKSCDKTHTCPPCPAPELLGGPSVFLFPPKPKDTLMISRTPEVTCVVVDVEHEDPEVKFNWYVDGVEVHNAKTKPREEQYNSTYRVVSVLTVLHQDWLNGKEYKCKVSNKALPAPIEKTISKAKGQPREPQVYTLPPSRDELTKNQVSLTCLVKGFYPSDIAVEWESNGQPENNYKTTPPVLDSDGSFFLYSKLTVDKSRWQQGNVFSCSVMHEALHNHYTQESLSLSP
light: B1 light
notes: Substitution in both H chains; position in EU numbering; also called S267E homodimerized antibody
B11: GpH7-B3 variant P331_04F/GpL16-k0 (Ho Ab) (antibody, human IgG1, kappa)
heavy: not shown
light: B1 light
notes: Substitution in both H chains; position in EU numbering; also called P331F homodimerized antibody
B12: GpH7-B3 variant Y300_19Q/GpL16-k0 (Ho Ab) (antibody, human IgG1, kappa)
heavy: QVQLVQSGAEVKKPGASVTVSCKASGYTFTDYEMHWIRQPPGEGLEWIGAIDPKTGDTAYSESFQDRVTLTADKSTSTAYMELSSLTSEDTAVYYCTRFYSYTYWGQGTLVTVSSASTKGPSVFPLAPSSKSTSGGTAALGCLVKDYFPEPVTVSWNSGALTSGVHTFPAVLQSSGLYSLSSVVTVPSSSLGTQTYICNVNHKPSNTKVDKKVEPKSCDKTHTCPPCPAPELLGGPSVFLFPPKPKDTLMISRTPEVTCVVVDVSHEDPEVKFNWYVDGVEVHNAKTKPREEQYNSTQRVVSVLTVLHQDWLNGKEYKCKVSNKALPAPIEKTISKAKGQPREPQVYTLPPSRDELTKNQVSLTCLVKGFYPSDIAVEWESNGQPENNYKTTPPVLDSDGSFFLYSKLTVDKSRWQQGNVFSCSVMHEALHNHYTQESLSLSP
light: B1 light
notes: Substitution in both H chains; position in EU numbering; also called Y300Q homodimerized antibody
B13: GpH7-B3 variant S267_09D/GpL16-k0 (Ho Ab) (antibody, human IgG1, kappa)
heavy: not shown
light: B1 light
notes: Substitution in both H chains; position in EU numbering; also called S267D homodimerized antibody
B14: GpH7-B3 variant S239_01G/GpL16-k0 (Ho Ab) (antibody, human IgG1, kappa)
heavy: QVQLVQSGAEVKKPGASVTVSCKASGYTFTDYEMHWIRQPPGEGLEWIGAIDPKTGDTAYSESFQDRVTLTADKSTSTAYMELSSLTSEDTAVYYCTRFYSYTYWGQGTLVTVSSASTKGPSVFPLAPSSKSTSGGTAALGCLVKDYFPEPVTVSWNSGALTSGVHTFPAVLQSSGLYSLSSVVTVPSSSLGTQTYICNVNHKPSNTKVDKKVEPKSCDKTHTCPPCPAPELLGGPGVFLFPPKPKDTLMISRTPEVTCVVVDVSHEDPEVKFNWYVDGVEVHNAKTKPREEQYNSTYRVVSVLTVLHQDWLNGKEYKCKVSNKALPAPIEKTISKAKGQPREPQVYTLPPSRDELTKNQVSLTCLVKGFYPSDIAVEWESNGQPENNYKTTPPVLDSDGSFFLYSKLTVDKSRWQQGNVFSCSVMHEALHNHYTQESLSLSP
light: B1 light
notes: Substitution in both H chains; position in EU numbering; also called S239G homodimerized antibody
B15: GpH7-B3 variant S337_10E/GpL16-k0 (Ho Ab) (antibody, human IgG1, kappa)
heavy: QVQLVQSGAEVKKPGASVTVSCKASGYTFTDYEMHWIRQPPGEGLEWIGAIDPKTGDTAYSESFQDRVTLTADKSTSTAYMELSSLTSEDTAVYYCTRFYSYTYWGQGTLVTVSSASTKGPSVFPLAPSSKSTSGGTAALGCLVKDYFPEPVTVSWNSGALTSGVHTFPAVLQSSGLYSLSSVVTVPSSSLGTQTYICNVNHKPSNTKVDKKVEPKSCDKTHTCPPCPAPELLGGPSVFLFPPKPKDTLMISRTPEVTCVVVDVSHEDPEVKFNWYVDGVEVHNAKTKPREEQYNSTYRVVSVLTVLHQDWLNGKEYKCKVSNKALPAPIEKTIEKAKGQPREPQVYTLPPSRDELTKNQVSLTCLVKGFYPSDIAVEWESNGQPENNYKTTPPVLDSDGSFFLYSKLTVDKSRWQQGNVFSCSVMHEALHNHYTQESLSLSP
light: B1 light
notes: Substitution in both H chains; position in EU numbering; also called S337E homodimerized antibody
B16: GpH7-B3 variant P271_08L/GpL16-k0 (Ho Ab) (antibody, human IgG1, kappa)
heavy: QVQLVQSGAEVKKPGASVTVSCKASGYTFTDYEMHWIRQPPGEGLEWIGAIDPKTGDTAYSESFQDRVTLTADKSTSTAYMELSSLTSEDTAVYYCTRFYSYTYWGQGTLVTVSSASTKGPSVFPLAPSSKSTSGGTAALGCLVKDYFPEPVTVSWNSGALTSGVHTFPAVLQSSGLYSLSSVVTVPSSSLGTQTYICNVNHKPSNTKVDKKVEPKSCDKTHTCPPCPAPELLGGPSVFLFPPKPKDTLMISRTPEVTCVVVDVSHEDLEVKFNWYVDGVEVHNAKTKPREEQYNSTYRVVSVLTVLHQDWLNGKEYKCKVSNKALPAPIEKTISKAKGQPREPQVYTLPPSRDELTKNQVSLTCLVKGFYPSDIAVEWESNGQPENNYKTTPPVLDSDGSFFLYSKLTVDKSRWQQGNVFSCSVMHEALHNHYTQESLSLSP
light: B1 light
notes: Substitution in both H chains; position in EU numbering; also called P271L homodimerized antibody
B17: GpH7-B3 variant S267_14T/GpL16-k0 (Ho Ab) (antibody, human IgG1, kappa)
heavy: not shown
light: B1 light
notes: Substitution in both H chains; position in EU numbering; also called S267T homodimerized antibody
B18: GpH7-B3 variant S239_08L/GpL16-k0 (Ho Ab) (antibody, human IgG1, kappa)
heavy: not shown
light: B1 light
notes: Substitution in both H chains; position in EU numbering; also called S239L homodimerized antibody
B19: GpH7-B3 variant S239_18N/GpL16-k0 (Ho Ab) (antibody, human IgG1, kappa)
heavy: not shown
light: B1 light
notes: Substitution in both H chains; position in EU numbering; also called S239N homodimerized antibody
B20: GpH7-B3 variant S267_02A/GpL16-k0 (Ho Ab) (antibody, human IgG1, kappa)
heavy: not shown
light: B1 light
notes: Substitution in both H chains; position in EU numbering; also called S267A homodimerized antibody
B21: GpH7-B3 variant S298_08L/GpL16-k0 (Ho Ab) (antibody, human IgG1, kappa)
heavy: not shown
light: B1 light
notes: Substitution in both H chains; position in EU numbering; also called S298L homodimerized antibody
B22: GpH7-B3 variant S267_03V/GpL16-k0 (Ho Ab) (antibody, human IgG1, kappa)
heavy: not shown
light: B1 light
notes: Substitution in both H chains; position in EU numbering; also called S267V homodimerized antibody
B23: GpH7-B3 variant T335_08L/GpL16-k0 (Ho Ab) (antibody, human IgG1, kappa)
heavy: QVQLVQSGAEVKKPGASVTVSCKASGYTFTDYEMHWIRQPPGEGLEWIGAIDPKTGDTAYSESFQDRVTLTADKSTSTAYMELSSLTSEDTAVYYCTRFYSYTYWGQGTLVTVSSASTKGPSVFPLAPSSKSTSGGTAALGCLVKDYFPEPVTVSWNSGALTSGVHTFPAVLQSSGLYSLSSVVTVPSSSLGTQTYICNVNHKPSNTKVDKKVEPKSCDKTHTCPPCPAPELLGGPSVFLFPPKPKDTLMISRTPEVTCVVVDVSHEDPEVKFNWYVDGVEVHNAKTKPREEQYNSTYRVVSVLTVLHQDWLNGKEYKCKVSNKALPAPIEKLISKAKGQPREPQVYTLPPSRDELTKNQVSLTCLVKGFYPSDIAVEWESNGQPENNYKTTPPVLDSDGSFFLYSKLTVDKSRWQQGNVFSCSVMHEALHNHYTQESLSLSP
light: B1 light
notes: Substitution in both H chains; position in EU numbering; also called T335L homodimerized antibody
B24: GpH7-A5/GpH7-B3 variant L328_03V/GpL16-k0 (He Ab) (antibody, human IgG1, kappa)
heavy 1: not shown
heavy 2: not shown
light: B1 light
notes: Substitution in one H chain only; position in EU numbering; also called L328V heterodimerized antibody
B25: GpH7-A5/GpH7-B3 variant S267_09D/GpL16-k0 (He Ab) (antibody, human IgG1, kappa)
heavy 1: not shown
heavy 2: not shown
light: B1 light
notes: Substitution in one H chain only; position in EU numbering; also called S267D heterodimerized antibody
B26: GpH7-A5/GpH7-B3 variant S298_08L/GpL16-k0 (He Ab) (antibody, human IgG1, kappa)
heavy 1: not shown
heavy 2: not shown
light: B1 light
notes: Substitution in one H chain only; position in EU numbering; also called S298L heterodimerized antibody
B27: GpH7-A5/GpH7-B3 variant P238_08L/GpL16-k0 (He Ab) (antibody, human IgG1, kappa)
heavy 1: not shown
heavy 2: not shown
light: B1 light
notes: Substitution in one H chain only; position in EU numbering; also called P238L heterodimerized antibody
B28: GpH7-A5/GpH7-B3 variant L328_07I/GpL16-k0 (He Ab) (antibody, human IgG1, kappa)
heavy 1: not shown
heavy 2: not shown
light: B1 light
notes: Substitution in one H chain only; position in EU numbering; also called L328I heterodimerized antibody

Target: T1, FcγRIIb extracellular domain with C-terminal His tag (human, UniProt P31994 43-217)
T1 construct: extracellular domain; Expressed in FreeStyle293 cells; used as analyte in Biacore; also called FcgRIIb; 2b; not shown: C-terminal His tag
T1 sequence (looked up): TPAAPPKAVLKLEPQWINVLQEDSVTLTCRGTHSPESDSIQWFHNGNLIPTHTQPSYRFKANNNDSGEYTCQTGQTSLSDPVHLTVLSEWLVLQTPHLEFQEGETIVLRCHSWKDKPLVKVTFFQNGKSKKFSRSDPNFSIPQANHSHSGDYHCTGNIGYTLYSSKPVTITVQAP
Test: SPR (Biacore), antibody captured on antigen-peptide chip, FcgRIIb as analyte; binding relative to GpH7-B3/GpL16-k0 (HoCon Ab) = 100

Ho/Con_2b	Binder
229 % of control	B1
116 % of control	B2
110 % of control	B3
109 % of control	B4
224 % of control	B5
116 % of control	B6
107 % of control	B7
108 % of control	B8
213 % of control	B9
396 % of control	B10
113 % of control	B11
124 % of control	B12
327 % of control	B13
174 % of control	B14
109 % of control	B15
113 % of control	B16
106 % of control	B17
142 % of control	B18
125 % of control	B19
274 % of control	B20
115 % of control	B21
206 % of control	B22
106 % of control	B23

Target: T1, FcγRIIb extracellular domain with …
Test: SPR (Biacore), antibody captured on antigen-peptide chip, FcgRIIb as analyte; binding relative to GpH7-A5/GpH7-B3/GpL16-k0 (HeCon Ab) = 100

He/Con_2b	Binder
126 % of control	B24
310 % of control	B25
108 % of control	B26
204 % of control	B27
160 % of control	B28
